# Tests used:
# HLA-B*15:01 = test: IEDB peptide-MHC binding, purified MHC/direct/fluorescence; filed as Kd, often an IC50 or EC50 that approximates it; ≥ and ≤ were set here for values at or beyond the usual limits of such assays; details: source organism: Influenza A virus (A/Hong Kong/213/2003(H5N1))
# HLA-A*02:12 = test: as above; details: source organism: Influenza A virus (A/Taiwan/2/2006(H1N1))
# HLA-A*11:01 = test: as above; details: source organism: Influenza A virus (A/Hong Kong/213/2003(H5N1))
# HLA-A*31:01 = test: as above; details: source organism: Influenza A virus (A/Hong Kong/213/2003(H5N1))
# HLA-A*26:03 = test: as above; details: source organism: Influenza A virus (A/Taiwan/2/2006(H1N1))
# HLA-B*58:01 = test: as above; details: source organism: Influenza A virus (A/Hong Kong/213/2003(H5N1))
# HLA-A*01:01 = test: as above; details: source organism: Influenza A virus (A/Hong Kong/213/2003(H5N1))
# HLA-A*02:19 = test: as above; details: source organism: Influenza A virus (A/Taiwan/2/2006(H1N1))
# HLA-B*57:01 = test: as above; details: source organism: Influenza A virus (A/Hong Kong/213/2003(H5N1))
# HLA-A*24:02 = test: as above; details: source organism: Influenza A virus (A/Hong Kong/213/2003(H5N1))
# HLA-A*26:02 = test: as above; details: source organism: Influenza A virus (A/Taiwan/2/2006(H1N1))
# HLA-A*02:01 = test: as above; details: source organism: Influenza A virus (A/Hong Kong/213/2003(H5N1))
# HLA-A*02:11 = test: as above; details: source organism: Influenza A virus (A/Taiwan/2/2006(H1N1))
# HLA-B*08:02 = test: as above; details: source organism: Influenza A virus (A/Taiwan/2/2006(H1N1))
# HLA-B*08:01 = test: as above; details: source organism: Influenza A virus (A/Taiwan/2/2006(H1N1))
# HLA-A*03:01 = test: as above; details: source organism: Influenza A virus (A/Hong Kong/213/2003(H5N1))
# HLA-A*24:03 = test: as above; details: source organism: Influenza A virus (A/Hong Kong/213/2003(H5N1))
# HLA-A*02:03 = test: as above; details: source organism: Influenza A virus (A/Taiwan/2/2006(H1N1))
# HLA-A*23:01 = test: as above; details: source organism: Influenza A virus (A/Hong Kong/213/2003(H5N1))
# HLA-B*07:02 = test: as above; details: source organism: Influenza A virus (A/Hong Kong/213/2003(H5N1))
# HLA-B*27:05 = test: as above; details: source organism: Influenza A virus (A/Hong Kong/213/2003(H5N1))
# HLA-B*15:09 = test: as above; details: source organism: Influenza A virus (A/Taiwan/2/2006(H1N1))
# HLA-B*15:17 = test: as above; details: source organism: Influenza A virus (A/Hong Kong/213/2003(H5N1))
# HLA-A*02:06 = test: IEDB peptide-MHC binding, purified MHC/competitive/fluorescence; filed as Kd, often an IC50 or EC50 that approximates it; ≥ and ≤ were set here for values at or beyond the usual limits of such assays; details: source organism: Influenza A virus (A/X-31(H3N2))
# HLA-B*18:01 = test: as above; details: source organism: Influenza A virus (A/X-31(H3N2))
# HLA-A*68:02 = test: as above; details: source organism: Influenza A virus (A/X-31(H3N2))
# HLA-B*39:01 = test: as above; details: source organism: Influenza A virus (A/X-31(H3N2))
sequence,measurement,setting,value
CFMYSDFHF,Kd,HLA-B*15:01,≥ 20 µM
same,Kd,HLA-A*02:12,243 nM
same,Kd,HLA-A*11:01,≥ 20 µM
same,Kd,HLA-A*31:01,≥ 20 µM
same,Kd,HLA-A*26:03,≥ 20 µM
same,Kd,HLA-B*58:01,74.5 nM
same,Kd,HLA-A*01:01,≥ 20 µM
same,Kd,HLA-A*02:19,268 nM
same,Kd,HLA-B*57:01,≥ 20 µM
same,Kd,HLA-A*24:02,21 nM
same,Kd,HLA-A*26:02,≥ 20 µM
same,Kd,HLA-A*02:01,141 nM
same,Kd,HLA-A*02:11,126 nM
same,Kd,HLA-B*08:02,≥ 20 µM
same,Kd,HLA-B*08:01,≥ 20 µM
same,Kd,HLA-A*03:01,≥ 20 µM
same,Kd,HLA-A*24:03,7.5 nM
same,Kd,HLA-A*02:03,307 nM
same,Kd,HLA-A*23:01,≤ 1 nM
same,Kd,HLA-B*07:02,≥ 20 µM
same,Kd,HLA-B*27:05,≥ 20 µM
same,Kd,HLA-B*15:09,≥ 20 µM
same,Kd,HLA-B*15:17,≥ 20 µM
same,Kd,HLA-A*02:06,49.2 nM
same,Kd,HLA-B*18:01,1990 nM
same,Kd,HLA-A*68:02,210 nM
same,Kd,HLA-B*39:01,≥ 20 µM

# Source: the Immune Epitope Database (IEDB)
